From US20090269336A1 (TAIWAN LIPOSOME, published 2009)

What was measured:
[1] = biological target: T1, recombinant VEGF3-114 (human, UniProt P15692 209-320); test: competitive ELISA: VC300 mAb equilibrated with soluble VEGF3-114, then added to wells coated with VEGF3-114
T1 construct: Expressed in E. coli
T1 sequence: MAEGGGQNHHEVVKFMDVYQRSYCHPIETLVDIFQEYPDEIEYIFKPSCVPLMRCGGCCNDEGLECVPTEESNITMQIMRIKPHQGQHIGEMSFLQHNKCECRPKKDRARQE
Description: The VC300 mAb was purified from mice ascites by ammonium sulfate precipitation and CM Sepharsoe chromatography (GE Healthcare, Piscataway, N.J.). The purified VC300 mAb was analyzed by 7.5% SDS-PAGE and the protein concentration was quantitated by the absorbance at 280 nm. Isotype determination of VC300 mAb was carried out by a monoclonal antibody isotyping kit I obtained from PIERCE (Rockford, Ill., USA). The dissociation constant (Kd) of antigen-antibody interaction was determined by competitive ELISA [Lin et al., (1997) Anal. Biochem., 254: 9-17]. In brief, the antigen, VEGF₃₋₁₁₄, at various concentrations was incubated with the antibody, VC300 mAb at 4° C. for overnight to reach equilibrium. The mixtures were transferred to the wells coated with 3 μg/ml of VEGF₃₋₁₁₄ and incubated at room temperature for 1 h. […] Absorbance at 450 nm was measured and the Kd value was calculated as described previously.

[2] = biological target: T1, recombinant VEGF3-114; test: cell-based or functional assay
[3] = biological target: T2, VEGF3-33 (human); test: Western blot of E. coli lysates
T2 construct: Truncated VEGF fragment expressed in E. coli as a fusion protein detected by anti-penta-His; Tested denatured in cell lysate by Western blot
T2 chain: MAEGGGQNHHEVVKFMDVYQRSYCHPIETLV
Description: (§1) To elucidate the binding epitope of VC300 mAb, the VEGF₃₋₁₁₄ (SEQ ID NO: 8) and five VEGF fragments, VEGF₃₋₃₃, VEGF₃₋₆₃, VEGF₃₋₉₃, VEGF₃₋₁₀₀, and VEGF₃₋₁₀₇ (see FIG. 1B), were used in the mapping. Nucleotide sequences of all these constructs were verified by DNA sequencing. Expression profiles of fusion proteins were analyzed by 12.5% SDS-PAGE and Western blot analysis with anti-penta-His monoclonal antibody (Qiagen, Valencia, Calif.). The lysates were used in verification of the binding epitope of VC300 mAb.
(§2) E. coli cells containing various truncated fragments of VEGF cDNA in expression vector were induced to express recombinant proteins with 0.4 mM isopropyl-β-D-thiogalactopyranoside (IPTG, Sigma-Aldrich, St. Louis, Mo.) at 37° C. for 3 h and the cells were harvested by centrifugation at 10,000 rpm for 2 min. The cell pellets were suspended and lysed with protein sample buffer, boiled for 10 min and analyzed by a 12.5% SDS-PAGE. For Western blot analysis, the gels were electroblotted onto PVDF membranes and the membranes were blocked with 5% skim milk in phosphate-buffered saline, pH 7.4 containing 0.05% Tween 20 at RT for 1 h, probed with a 1:1000 dilution of anti-penta-His monoclonal antibody or VC300 mAb followed by reaction with HRP-conjugated goat anti-mouse immunoglobulin (Chemicon Int., Temecula, Calif.). The binding reaction was detected by the addition of the diaminobenzidine (Sigma-Aldrich, St. Louis, Mo.) color development reagent, 0.05% diaminobenzidine, 0.005% hydrogen peroxide in 0.1 M Tris-HCl, pH 7.4.

[4] = biological target: T3, VEGF3-93 (human, UniProt P15692 209-299); test: Western blot of E. coli lysates
T3 construct: Truncated VEGF fragment expressed in E. coli as a fusion protein detected by anti-penta-His
T3 sequence: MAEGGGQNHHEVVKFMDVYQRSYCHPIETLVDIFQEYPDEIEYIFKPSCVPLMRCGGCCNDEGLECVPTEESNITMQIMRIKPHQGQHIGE
Description: as §1, §2

[5] = biological target: T4, VEGF3-63 (human, UniProt P15692 209-269); test: Western blot of E. coli lysates
T4 construct: Truncated VEGF fragment expressed in E. coli as a fusion protein detected by anti-penta-His
T4 sequence: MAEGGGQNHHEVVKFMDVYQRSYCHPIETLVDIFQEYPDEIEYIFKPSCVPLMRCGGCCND
Description: as §1, §2

[6] = biological target: T5, VEGF3-100 (human, UniProt P15692 209-306); test: Western blot of E. coli lysates
T5 construct: Truncated VEGF fragment expressed in E. coli as a fusion protein detected by anti-penta-His
T5 sequence: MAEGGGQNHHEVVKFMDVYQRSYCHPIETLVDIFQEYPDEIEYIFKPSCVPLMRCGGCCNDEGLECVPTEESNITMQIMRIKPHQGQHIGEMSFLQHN
Description: as §1, §2

B1: VC300 mAb (antibody, IgG1, V domains shown)
VH: EIQLLQSGPELVKPGASVKISCKASGYSFTGYFMNWVMQSHGRTLEWIGRINPYTGETLYNQKFKDKATLTAEISSSTAHMELRSLASDDSAVYFCARRGYAGSGGIYSMDSWGPGTSVTVSS
VL: EIVLTQSPAIMSASLGERVTMTCTASSAVSSSYLHWYHQKPGSSPKLWIFSTSNLASGVPSRFTGSGSGTSYSLTISSVEAEDAATYYCHQYHRSPYTFGAGTKLELN
notes: Mouse hybridoma antibody (BALB/c), purified from mouse ascites; isotype determined to be IgG1; constant regions are not; also called anti-VEGF monoclonal antibody
[1]
  Kd: ~2 nM
[2]
  IC50 of inhibition of VEGF-induced HUVEC proliferation (BrdU incorporation, 13.6 ng/ml VEGF3-114): ~1 nM
[3]
  binding result: no binding (tested: 1:1000 dilution of VC300 mAb)
[4]
  binding result: no binding (tested: 1:1000 dilution of VC300 mAb)
[5]
  binding result: no binding (tested: 1:1000 dilution of VC300 mAb)
[6]
  binding result: no binding (tested: 1:1000 dilution of VC300 mAb)
